Measurements: patent US20210032351A1 (XDCEXPLORER SHANGHAI, published 2021)
Values joined by “and” are separate entries in the source; they are usually repeats but may differ in a detail not shown here. Equal entries are not always repeated. Where two headings read alike, the source gives them in different places. Ends that are not written are not given here. * marks the point of attachment. Biotin = O=C1N[C@H]2[C@H](CS[C@H]2CCCCC(=O)*)N1

Key:
[1] = biological target: human EGFRvIII protein on the cell surface (human) (UniProt P00533); assay: FACS on CHOk1-EGFRvIII cells
pep21 = biological target: T1, pep21; assay: peptide dot matrix ELISA
T1 peptide: GADSYEMEEDGVRKCKK(Biotin)

pep05 = biological target: T2, pep05 (cysteine pairing not given here); assay: peptide dot matrix ELISA
T2 peptide: KGNYVVTDHGSCVRACK(Biotin)

pep13 = biological target: T3, pep13 (cysteine pairing not given here); assay: peptide dot matrix ELISA
T3 peptide: HGSCVRACGADSYEMEK(Biotin)

pep19 = biological target: T4, pep19; assay: peptide dot matrix ELISA
T4 sequence (peptide, C-terminal K(Biotin)): ACGADSYEMEEDGVRKK

pep06 = biological target: T5, pep06 (cysteine pairing not given here); assay: peptide dot matrix ELISA
T5 peptide: GNYVVTDHGSCVRACGK(Biotin)

pep07 = biological target: T6, pep07 (cysteine pairing not given here); assay: peptide dot matrix ELISA
T6 peptide: NYVVTDHGSCVRACGAK(Biotin)

pep20 = biological target: T7, pep20 (cysteine pairing not given here); assay: peptide dot matrix ELISA
T7 peptide: CGADSYEMEEDGVRKCK(Biotin)

pep14 = biological target: T8, pep14 (cysteine pairing not given here); assay: peptide dot matrix ELISA
T8 peptide: GSCVRACGADSYEMEEK(Biotin)

pep04 [2] = biological target: T9, pep04; assay: peptide dot matrix ELISA
T9 sequence (peptide, C-terminal K(Biotin)): KKGNYVVTDHGSCVRAK

pep15 = biological target: T10, pep15 (cysteine pairing not given here); assay: peptide dot matrix ELISA
T10 peptide: SCVRACGADSYEMEEDK(Biotin)

[3] = biological target: human wild-type EGFR protein on the cell surface (human) (UniProt P00533); assay: FACS on normal human primary hepatocytes
[4] = biological target: human wild-type EGFR protein on the cell surface (human) (UniProt P00533); assay: FACS on CHOk1-EGFR cells
[5] = biological target: human wild-type EGFR protein on the cell surface (human) (UniProt P00533); assay: FACS on A431 tumor cells
[6] = biological target: human EGFRvIII protein on the cell surface (human) (UniProt P00533); assay: FACS on U87MG-EGFRvIII cells
[7] = biological target: human EGFRvIII-hFc protein (human) (UniProt P00533); assay: ELISA, EGFRvIII-hFc coated
[8] = biological target: human EGFRvIII-hFc protein (human) (UniProt P00533); assay: ELISA, EGFRvIII-hFc coated; remark: listed apart in the source
[9] = biological target: T11, human EGFRvIII protein, full length, on transfected cells (human, UniProt P00533 25-1210); assay: FACS on U87MG-EGFRvIII cells, Alexa 488 secondary antibody, mean fluorescence intensity
T11 construct: whole, on cells; stably transfected CHO-K1, U87MG and HEK293(F) cells; also called hEGFRvIII; mutant EGFRvIII protein
Method: The preparation of U87MG-EGFRvIII required for FACS detection is as described in the preparation of the immunogen B in example 1. Normal human primary hepatocytes are purchased from BioreclamationIVT, and A431 tumor cells are purchased from ATCC. […] The cells are washed twice with the HBSS buffer and are counted, and then the cells are diluted with the HBSS buffer to 2×10⁶ cells/ml, added with 1% goat serum blocking solution, with the percentage being the mass percentage, and incubated on ice for 30 minutes, and then centrifugally washed twice with the HBSS buffer. […] The plate is centrifugally washed twice with the FACS buffer, added with 100 μL/well of a 1:1000 diluted fluorescence (Alexa 488) labeled secondary antibody (purchased from Invitrogen), and incubated on ice for 1 hour. […] The cells are resuspended in 100 μL of the FACS buffer, and the results are detected and analyzed by FACS (FACS Calibur, purchased from BD). Data analysis is performed by using the software (CellQuest) to obtain the mean fluorescence intensity (MFI) of the cells. Data is further analyzed by using the software (GraphPad Prism5) to perform data fitting and calculate EC50.

[10] = biological target: T12, human EGFRvIII-hFc protein (human, UniProt P00533 25-645); assay: ELISA, plate coated with human EGFRvIII-hFc, HRP secondary antibody, absorbance at 450 nm
T12 construct: extracellular domain; made in HEK293 cells, purified on protein A; also called immunogen A; hFc-tagged EGFRvIII protein; not shown: human IgG Fc fragment (hFc) of the pCpC vector
Method: The purified immunogen A (EGFRvIII-hFc) obtained in example 1 (for the preparation method, see step (I) in example 1) is diluted with PBS to a final concentration of 1.0 μg/mL, and then added to a 96-well ELISA plate at 100 μl/well. The plate is sealed with a plastic film and incubated at 4° C. overnight. The next day, the plate is washed twice with a plate washing solution [PBS+0.01% (v/v) Tween20], and added with a blocking solution [PBS+0.01% (v/v) Tween20+1% (w/w) BSA] for blocking 2 hours at room temperature. […] The plate is incubated for 2 hours at 37° C., and then washed 3 times with the plate washing solution [PBS+0.01% (v/v) Tween20]. The plate is added with an HRP (horseradish peroxidase) labeled secondary antibody (purchased from Sigma), incubated at 37° C. for 2 hours, and then washed 3 times with the plate washing solution [PBS+0.01% (v/v) Tween20]. The plate is added with 100 μl of TMB substrate/well, incubated for 30 minutes at room temperature, and then added with 100 μl of stopping solution (1.0N HCl)/well. A450 nm value is read using an ELISA plate reader (SpectraMax 384plus, purchased from Molecular Device), and the results are shown in FIG. 11 and table 19.

[11] = biological target: T13, human EGFR protein (wild-type), on cells (human, UniProt P00533 25-1210); assay: FACS on CHOK-EGFR cells
T13 construct: whole, on cells; transfected on CHO-K1 cells; endogenous on the human cell lines; the cell is named under assay; also called wild-type EGFR; hEGFR

[12] = biological target: T11, human EGFRvIII protein, full length, on …; assay: FACS on CHOK-EGFRvIII cells
[13] = biological target: T12, human EGFRvIII-hFc protein; assay: ELISA, coated EGFRvIII-hFc
Method: The plate is incubated for 2 hours at 37° C., and then washed 3 times with the plate washing solution [PBS+0.01% (v/v) Tween20]. The plate is added with an HRP (horseradish peroxidase) labeled secondary antibody (purchased from Sigma), incubated at 37° C. for 2 hours, and then washed 3 times with the plate washing solution [PBS+0.01% (v/v) Tween20]. The plate is added with 100 μl of TMB substrate/well, incubated for 30 minutes at room temperature, and then added with 100 μl of stopping solution (1.0N HCl)/well. A450 nm value is read using an ELISA plate reader (SpectraMax 384plus, purchased from Molecular Device), and the results are shown in FIG. 11 and table 19.

pep17 = biological target: T14, pep17; assay: peptide dot matrix ELISA
T14 peptide: VRACGADSYEMEEDGVK(Biotin)

pep34 = biological target: T15, pep34 (cysteine pairing not given here); assay: peptide dot matrix ELISA
T15 peptide: KCKKCEGPCRKVCNGIK(Biotin)

pep09 = biological target: T16, pep09 (cysteine pairing not given here); assay: peptide dot matrix ELISA
T16 peptide: VVTDHGSCVRACGADSK(Biotin)

pep33 = biological target: T17, pep33 (cysteine pairing not given here); assay: peptide dot matrix ELISA
T17 peptide: RKCKKCEGPCRKVCNGK(Biotin)

pep10 = biological target: T18, pep10 (cysteine pairing not given here); assay: peptide dot matrix ELISA
T18 peptide: VTDHGSCVRACGADSYK(Biotin)

pep35 = biological target: T19, pep35 (cysteine pairing not given here); assay: peptide dot matrix ELISA
T19 peptide: CKKCEGPCRKVCNGIGK(Biotin)

pep11 = biological target: T20, pep11 (cysteine pairing not given here); assay: peptide dot matrix ELISA
T20 peptide: TDHGSCVRACGADSYEK(Biotin)

pep26 = biological target: T21, pep26 (cysteine pairing not given here); assay: peptide dot matrix ELISA
T21 peptide: EMEEDGVRKCKKCEGPK(Biotin)

pep25 = biological target: T22, pep25 (cysteine pairing not given here); assay: peptide dot matrix ELISA
T22 peptide: YEMEEDGVRKCKKCEGK(Biotin)

pep31 = biological target: T23, pep31 (cysteine pairing not given here); assay: peptide dot matrix ELISA
T23 peptide: GVRKCKKCEGPCRKVCK(Biotin)

pep16 = biological target: T24, pep16 (cysteine pairing not given here); assay: peptide dot matrix ELISA
T24 peptide: CVRACGADSYEMEEDGK(Biotin)

pep30 = biological target: T25, pep30 (cysteine pairing not given here); assay: peptide dot matrix ELISA
T25 peptide: DGVRKCKKCEGPCRKVK(Biotin)

pep28 = biological target: T26, pep28 (cysteine pairing not given here); assay: peptide dot matrix ELISA
T26 peptide: EEDGVRKCKKCEGPCRK(Biotin)

pep08 = biological target: T27, pep08 (cysteine pairing not given here); assay: peptide dot matrix ELISA
T27 peptide: YVVTDHGSCVRACGADK(Biotin)

pep04 [14] = biological target: T28, pep04; assay: peptide dot matrix ELISA
T28 peptide: KKGNYVVTDHGSCVRAK(Biotin)

pep18 = biological target: T29, pep18; assay: peptide dot matrix ELISA
T29 peptide: RACGADSYEMEEDGVRK(Biotin)

pep01 = biological target: T30, pep01; assay: peptide dot matrix ELISA
T30 peptide: LEEKKGNYVVTDHGSCK(Biotin)

Molecule: hIgG (antibody)
- Maximum mean fluorescence intensity [1]: 133 MFI
- ELISA signal (pep21): 0.06
- ELISA signal (pep05): 0.05 and 0.06
- ELISA signal (pep13): 0.06
- ELISA signal (pep19): 0.05
- ELISA signal (pep06): 0.07 and 0.05
- ELISA signal (pep07): 0.05
- ELISA signal (pep20): 0.12 and 0.1
- ELISA signal (pep14): 0.07
- ELISA signal (pep04 [2]): 0.05 and 0.06
- ELISA signal (pep15): 0.05 and 0.06
- MFI [3]: 219 MFI
- Maximum mean fluorescence intensity [4]: 144 MFI
- MFI [5]: 388 MFI
- Maximum mean fluorescence intensity [6]: 0 MFI
- Maximum OD450 value [7]: 0.17 OD450
- Maximum OD450 value [8]: 0.1 OD450

B1: Chimeric antibody 63A10 (antibody, human IgG1, V domains shown)
VH: QVQLQQSGAELARPGASVKMSCKASGYTFISFTMHWVKQRPGQGLEWIGYINPNSGYTKYNQKFKDKATLTAGQSSSTAYMQLSSLTSEDSAVYYCTRGGGRGFAYWGQGTLVTVSA
VL: DILMTQSPSSMSVSLGDTVTITCHASQDINSNIGWLQQKPGKSFKALIYHGTNLEDGVPSRFSGSGSGADYSLTISSLESEDFADYYCVQYAQFPFTFGSGTKLEIK
notes: also called c63A10A7
- EC50 (read off the curve) [9]: ~2 nM
- EC50 (read off the curve) [10]: ~0.03 nM

B2: c75G7C6-3 (antibody, human IgG1, V domains shown)
VH: EVQLQQSGPELVKPGASVKIPCKASGYTFTDYNMDWVKQSHGKSLEWIGDINPNNGDTIYNQKFKGKATLTVDKSSSTAYMELRSLTSEDTAVYYCARGDYEGYYPVYYAMDYWGQGTSVTVSS
VL: ENVLTQSPAIMSASPGEKVTMTCRASSSVSSSYLHWYQQKSGASPKLWIFSTSNLAAGVPARFSGSGSGTSYSLTVSSVEAEDAATYYCQQYSGYPLTFGAGTKLELK
notes: chimeric, human IgG1 / kappa; DG of heavy chain CDR3 mutated to EG; also called DG/EG mutant
- fold decrease in binding ability compared to the wild-type chimeric antibody c75G7C6 [11]: 3 fold
- fold decrease in binding ability compared to the wild-type chimeric antibody c75G7C6 [12]: 2.5 fold
- fold decrease in binding ability compared to the wild-type chimeric antibody c75G7C6 [13]: 22 fold

B3: Chimeric antibody 63A10 (antibody, V domains shown)
VH: QVQLQQSGAELARPGASVKMSCKASGYTFISFTMHWVKQRPGQGLEWIGYINPNSGYTKYNQKFKDKATLTAGQSSSTAYMQLSSLTSEDSAVYYCTRGGGRGFAYWGQGTLVTVSA
VL: DILMTQSPSSMSVSLGDTVTITCHASQDINSNIGWLQQKPGKSFKALIYHGTNLEDGVPSRFSGSGSGADYSLTISSLESEDFADYYCVQYAQFPFTFGSGTKLEIK
notes: also called c63A10A7
- ELISA signal (pep17): 0.05
- ELISA signal (pep34): 0.07
- ELISA signal (pep09): 0.05
- ELISA signal (pep33): 0.07
- ELISA signal (pep10): 0.05
- ELISA signal (pep35): 0.07
- ELISA signal (pep11): 0.05
- ELISA signal (pep26): 0.33
- ELISA signal (pep25): 0.06
- ELISA signal (pep31): 0.06
- ELISA signal (pep16): 0.05
- ELISA signal (pep30): 0.06
- ELISA signal (pep28): 0.06
- ELISA signal (pep08): 0.05
- ELISA signal (pep04 [14]): 0.06
- ELISA signal (pep18): 0.05
- ELISA signal (pep01): 0.05
